# Columns and labels:
# [1] = Ex vivo biodistribution in LNCaP tumor-bearing SCID mice; settings: mouse, in vivo, 50 kBq per mouse; for tissue uptake at 1 h: 1 h p.i.; for tissue uptake at 4 h: 4 h p.i.; for tissue uptake at 24 h: 24 h p.i.; for tissue uptake at 48 h: 48 h p.i.; for tissue uptake at 72 h: 72 h p.i.; for tissue uptake at 120 h: 120 h p.i.
# From the text: (§1) The biodistribution experiments with [^225Ac]Ac-mcp-M-alb-PSMA and [^225Ac]Ac-mcp-D-alb-PSMA were accomplished using LNCaP tumor-bearing mice. The SCID male mice (ENVIGO, Indianapolis, IN, USA) 8 weeks old were subcutaneously xenografted into the right flank with 10∙10^6 LNCaP cells (ATCC, Manassas, VA, USA) mixed with Matrigel Matrix (Corning Inc., Corning, NY, USA) at a 1:1 ratio. The tumor growth was periodically monitored by caliper-based measurements. When the tumor volume reached 200-300 mm^3 (i.e., approx. 6 weeks after the xenografting of the cells), the mice were enrolled in the biodistribution study. All experimental animals were housed in a specific-pathogen-free animal facility and all experiments with animals were performed in accordance with appropriate legal norms (Czech Law No. 246/1992) and with the approval of the Ministry of Education, Youth and Sports (MSMT-35035/2019-3) and approval of the Ethical committee of Faculty of Medicine and Dentistry, Palacky University in Olomouc. The number of animals was reduced as much as possible (n = 3-4 per group and time point) for in vivo experiments in order to strictly follow 3Rs principle.
# (§2) For the purpose of biodistribution studies, the ^225Ac-radioconjugates were diluted with saline. The diluted ^225Ac-radioconjugates were applied retro-orbitally (r.o.) to the experimental animals at a dose of 50 kBq per mouse corresponding to 10 pmol of the PSMA-inhibitor. The radioactivity application was carried out under 2% isoflurane anesthesia (FORANE, Abbott Laboratories, Abbott Park, IL, USA) to minimize animal suffering and to prevent animal motion. The mice were sacrificed by cervical dislocation 1, 4, 24, 48, 72, and 120 h (plus 168 h for [^225Ac]Ac-mcp-D-alb-PSMA) post-injection and organs of interest (blood, spleen, pancreas, stomach, intestine, kidneys, liver, heart, lungs, muscle, bone, and tumor) were collected. The organs were weighed, and their radioactivity was counted on an automatic gamma counter. The uptake of the ^225Ac-radioconjugates was expressed as a percentage of injected dose per gram of the corresponding organ (%ID/g). The area under the curve (AUC) was determined for both tested PSMA ligands from non-decay-corrected data obtained from the ex vivo biodistribution data of the tumors, kidneys, and blood.
# [2] = test system: LNCaP tumor-bearing SCID mice; assay: as above
# From the text: as §1, §2
# [3] = non-decay corrected biodistribution data, mean ± SD
structure (smiles),measurement,setting,value
"O=C(O)CC[C@H](NC(=O)N[C@@H](CCCCNC(=O)[C@H](Cc1ccc2ccccc2c1)NC(=O)[C@H]1CC[C@H](CNC(=O)[C@H](CCCCn2cc(COc3cc(CN4CCOCCOCCN(Cc5cccc(C(=O)O)n5)CCOCCOCC4)nc(C(=O)O)c3)nn2)NC(=O)[C@H](CCC(=O)O)NC(=O)CCCc2ccc(I)cc2)CC1)C(=O)O)C(=O)O [[^225Ac]Ac-mcp-M-alb-PSMA, metal not drawn]",tissue to tissue ratio,"[1]; male, SCID, total radioactivity",1490
same,tissue uptake at 1 h,[1]; blood uptake (AV),6.47 %ID/g
same,tissue uptake at 4 h,[1]; blood uptake (AV),4.8 %ID/g
same,tissue uptake at 24 h,[1]; blood uptake (AV),0.54 %ID/g
same,tissue uptake at 48 h,[1]; blood uptake (AV),0.08 %ID/g
same,tissue uptake at 72 h,[1]; blood uptake (AV),0.03 %ID/g
same,tissue uptake at 120 h,[1]; blood uptake (AV),0.03 %ID/g
same,tissue uptake at 1 h,[1]; femur uptake (AV),0.61 %ID/g
same,tissue uptake at 4 h,[1]; femur uptake (AV),0.62 %ID/g
same,tissue uptake at 24 h,[1]; femur uptake (AV),0.32 %ID/g
same,tissue uptake at 48 h,[1]; femur uptake (AV),0.44 %ID/g
same,tissue uptake at 72 h,[1]; femur uptake (AV),0.32 %ID/g
same,tissue uptake at 120 h,[1]; femur uptake (AV),0.43 %ID/g
same,tissue uptake at 1 h,[1]; heart uptake (AV),2.03 %ID/g
same,tissue uptake at 4 h,[1]; heart uptake (AV),1.63 %ID/g
same,tissue uptake at 24 h,[1]; heart uptake (AV),0.34 %ID/g
same,tissue uptake at 48 h,[1]; heart uptake (AV),0.22 %ID/g
same,tissue uptake at 72 h,[1]; heart uptake (AV),0.15 %ID/g
same,tissue uptake at 120 h,[1]; heart uptake (AV),0.23 %ID/g
same,tissue uptake at 1 h,[1]; intestine uptake (AV),0.6 %ID/g
same,tissue uptake at 4 h,[1]; intestine uptake (AV),0.54 %ID/g
same,tissue uptake at 24 h,[1]; intestine uptake (AV),0.81 %ID/g
same,tissue uptake at 48 h,[1]; intestine uptake (AV),0.1 %ID/g
same,tissue uptake at 72 h,[1]; intestine uptake (AV),0.12 %ID/g
same,tissue uptake at 120 h,[1]; intestine uptake (AV),0.06 %ID/g
same,tissue uptake at 1 h,[1]; kidneys uptake (AV),29.5 %ID/g
same,tissue uptake at 4 h,[1]; kidneys uptake (AV),67.9 %ID/g
same,tissue uptake at 24 h,[1]; kidneys uptake (AV),33.1 %ID/g
same,tissue uptake at 48 h,[1]; kidneys uptake (AV),15.7 %ID/g
same,tissue uptake at 72 h,[1]; kidneys uptake (AV),9.59 %ID/g
same,tissue uptake at 120 h,[1]; kidneys uptake (AV),8.82 ± 4.4 %ID/g
same,tissue uptake at 1 h,[1]; liver uptake (AV),1.44 %ID/g
same,tissue uptake at 4 h,[1]; liver uptake (AV),1.43 %ID/g
same,tissue uptake at 24 h,[1]; liver uptake (AV),1.08 %ID/g
same,tissue uptake at 48 h,[1]; liver uptake (AV),1.19 %ID/g
same,tissue uptake at 72 h,[1]; liver uptake (AV),1.08 %ID/g
same,tissue uptake at 120 h,[1]; liver uptake (AV),1.27 %ID/g
same,tissue uptake at 1 h,[1]; lung uptake (AV),6.27 %ID/g
same,tissue uptake at 4 h,[1]; lung uptake (AV),4.99 %ID/g
same,tissue uptake at 24 h,[1]; lung uptake (AV),2.19 %ID/g
same,tissue uptake at 48 h,[1]; lung uptake (AV),1.77 %ID/g
same,tissue uptake at 72 h,[1]; lung uptake (AV),1.47 %ID/g
same,tissue uptake at 120 h,[1]; lung uptake (AV),1.73 %ID/g
same,tissue uptake at 1 h,[1]; muscle uptake (AV),0.53 %ID/g
same,tissue uptake at 4 h,[1]; muscle uptake (AV),0.51 %ID/g
same,tissue uptake at 24 h,[1]; muscle uptake (AV),0.14 %ID/g
same,tissue uptake at 48 h,[1]; muscle uptake (AV),0.07 %ID/g
same,tissue uptake at 72 h,[1]; muscle uptake (AV),0.08 %ID/g
same,tissue uptake at 120 h,[1]; muscle uptake (AV),0.12 %ID/g
same,tissue uptake at 1 h,[1]; pancreas uptake (AV),0.57 %ID/g
same,tissue uptake at 4 h,[1]; pancreas uptake (AV),0.57 %ID/g
same,tissue uptake at 24 h,[1]; pancreas uptake (AV),0.26 %ID/g
same,tissue uptake at 48 h,[1]; pancreas uptake (AV),0.1 %ID/g
same,tissue uptake at 72 h,[1]; pancreas uptake (AV),0.06 %ID/g
same,tissue uptake at 120 h,[1]; pancreas uptake (AV),0.07 %ID/g
same,tissue uptake at 1 h,[1]; spleen uptake (AV),7.24 %ID/g
same,tissue uptake at 4 h,[1]; spleen uptake (AV),3.4 %ID/g
same,tissue uptake at 24 h,[1]; spleen uptake (AV),1.24 %ID/g
same,tissue uptake at 48 h,[1]; spleen uptake (AV),1.31 %ID/g
same,tissue uptake at 72 h,[1]; spleen uptake (AV),1.12 %ID/g
same,tissue uptake at 120 h,[1]; spleen uptake (AV),1.43 %ID/g
same,tissue uptake at 1 h,[1]; stomach uptake (AV),0.83 %ID/g
same,tissue uptake at 4 h,[1]; stomach uptake (AV),0.58 %ID/g
same,tissue uptake at 24 h,[1]; stomach uptake (AV),0.39 %ID/g
same,tissue uptake at 48 h,[1]; stomach uptake (AV),0.17 %ID/g
same,tissue uptake at 72 h,[1]; stomach uptake (AV),0.1 %ID/g
same,tissue uptake at 120 h,[1]; stomach uptake (AV),0.11 %ID/g
same,tissue uptake at 1 h,[1]; tumor uptake (AV),5.96 %ID/g
same,tissue uptake at 4 h,[1]; tumor uptake (AV),18 %ID/g
same,tissue uptake at 24 h,[1]; tumor uptake (AV),29.5 %ID/g
same,tissue uptake at 48 h,[1]; tumor uptake (AV),36.5 %ID/g
same,tissue uptake at 72 h,[1]; tumor uptake (AV),38.7 %ID/g
same,tissue uptake at 120 h,[1]; tumor uptake (AV),46 %ID/g
same,tissue uptake at 128 h,"[1]; tumor uptake (highest accumulation), 128 h p.i.",46 ± 7.77 %ID/g
same,AUCTu-to-AUCBl,"[2]; mouse, in vivo",26
same,AUCTu-to-AUCKi,"[2]; mouse, in vivo",1.5
same,AUCTu-to-AUCLi,"[2]; mouse, in vivo",29
same,blood clearance: duration of excretion,"[2]; mouse, in vivo",24 h
same,maximal tumor uptake compared to counterpart without dedicated albumin binder,"[2]; mouse, in vivo",approximately four times higher
same,AUC Blood,[2]; [3],132 ± 7.2 %ID/g.h
same,AUC Kidneys,[2]; [3],2269 ± 288 %ID/g.h
same,AUC Liver,[2]; [3],119 ± 4.6 %ID/g.h
same,AUC Tumor,[2]; [3],3494 ± 194 %ID/g.h
